Assay: soluble on expression in E. coli; label from the status in PepcDB or PDB records

Sequence | soluble on expression in E. coli
MIPQRIKELEAYKTEVTPASVRLSSNEFPYDFPEEIKQRALEELKKVPLNKYPDPEAKELKAVLADFFGVKEENLVLGNGSDELIYYLSIAIGELYIPVYIPVPTFPMYEISAKVLGRPLVKVQLDENFDIDLERSIELIEKEKPVLGYFAYPNNPTGNLFSRGKIEEIRNRGVFCVIDEAYYHYSGETFLEDALKREDTVVLRTLSKIGMASLRVGILIGKGEIVSEINKVRLPFNVTYPSQVMAKVLLTEGREFLMEKIQEVVKERERMYDEMKKIEGVEVFPSKANFLLFRTPYPAHEVYQELLKRDVLVRNVSYMEGLQKCLRVSVGKPEENNKFLEALEESIKSLSSSL | soluble
MIQDVIEKKLSDEFQPEFLKVINESDMHNVPRGSESHFKVTVVSERFAGLRPVARHRLVNQTLADELANHIHALAIHTYTTQEWQQMNQESPESPMCLGGSRKSAQ | not soluble
MIQIVRDNFPGLETAEQLEDYKKTVIKNIERKTALFTKSDNGNIVGVLIFSYYSKCLSCMAVHPDYRKMGIGYAMVKKMIDLFPKDMDISVTTFREGDLKGVAPRAPYKKIGFLEDEFVEEFNYPHQKFIFRNRP | not soluble
MIQPRIRQNPFETYEEVAEGFEDLLAPLELFFDREYQGHLDLGTHGTVYSKGTRDAEAFLRPLWGLGPYVTQNESEYLNDFLTGIIEGTDPESSSYWGKTKDYDQLIVEMAALSTFLLLNKEKTWDQLTKEQQNNLHSWLIQANENIIPPNNWHFFRVLLNLAMKHCEMPYSKEQIAVDLAVIDRFYVGNGWYYDGVETQVDYYVSFAIHYYSLLYCRFAPEDTARVAIMKERATLFAQEFKYWFTQPGEAIPFGRSLTYRFAQVSFFSALVFADVEALPWGEIKGLISRHLHQWMNKDIFTTDGLLSVGYDYQNMVFAEGYNGPGSPYWAFKTFILLAVPKDHPYWQAETQPISFPEKHLPSPESRNYYQVNDAGTHGLMFPAGQFINYQAHAHDKYSKFVYSSHFGFSTIKSDYWYYEGAYDNCLALAEDDHYFRTKGLDDQYEILDDRIIHQWHPWSDVAIKTTIVPLEGQHLRIHEIETQRALVAYEGGFSIPLFDEKVTCVSDQMAEVKNAKGVSKVENINGFSEAAIIRTEPNTNLLYPLTELPYLKANLSKGKHLLISLVTGVLPNEQIEPVKVRLKENQLLVEEKVVILGN | soluble
MIQVLGTSSGSGKTTIAMALSRIFFRSGYRVAPFKAVNMSLNSVIVEGEYEIARAQWLQAKAANTEPTRFMNPILLKPEGMGASQVIMLGKSLGKKTIPEYYEFIMNDGKRVIREAIDRISDDYDLIIAEGAGSPAEINLLDRDMANIYVSSIYNTPAILVGDIDRGGVFASIYGTLSLMPRPDLVRWIMINKMRGDASLLEPGLKKLENLTGKRVIGVVPYSENRLPGEDSFDYDHPRARGSKITIVRYPFMENYSDLDPLVYTSTGYNYVTAENASDLSDADLIVLPGSKNVFADLEYMRKNGIDKIIIENAGRAKILGICGGYQMLGQRITMGEISADGLGLLRAKTNYERTKTTRSVRYRVDNTLMSGTWEEGYEIHYGAVISLGGERMNETDKGPEGNVDANRLVFGTNIHGILANRSVFRFMTGRDIGEPEEYLRSEIDRFADVVKSSIDVADLIEYASSRE | not soluble
MIRGWLAEGERMKETSYYSYVVGELPKGCQYCVRGEKLVLFVTGVCPRNCFYCPLSPWRRKDVAYANERPIRKIEDIIEEAKIQEARGAGVTGGDPLARLNRTVEYIRTLKEEFGKKFHIHLYTTGILADKRALSMLYDAGLDEIRFHPDLFEPSSKFLNREIENLKNAFDFDWDVGGEVPAVPGFGDRIKWFAEILDKFGGKFLNINELEYSETNLSNILNRGFKLAGENSFAIKGSLELGLEILEWGEKNTSLYYHLCTAKLKDAVQLRNRLRRMAKNVAKPYMEITEDGTLRFGIAEYEDLEELYKFLVEEAEVPKEWLYINWEKKRIEMPVEVAEELAEAIEGDVKFYIVEEYPTWDRIEVERIPLN | not soluble
MIRKATWADAPAIASVHVESWKTTYSGIVPDAYLETLSVGEKQPLWEKVLSQSGHSVFVAEENGRVVGFVSGGPNRAADGPIAKYDGELYAIYLLKEVQGKGLGRQLVQALTRHLAQKGIHSLVVWVLADNPSRGFYERLGGEKVAEERVEIGGKALWEWCYELARRPIDGTVGGLPNRAAA | not soluble
MIRKLDKAEFQQATTLALEVYLQCGQDDFEDEGLESFKSFIFNDKLMNELCIYGAFEENKLIGIMGTKNEGKHISLFFIKKEFHRKGIGKQLFDYSQCDCPANEITVNSSTYAIRFYESLGFEKTNDRQQTNGISYTPMKLISNKLEHHHHHH | soluble
MIRLLTLLALLLPVPGWAGCRQALALGLDVSGSVDGREYRLQLDGLAAALLAPEVQARLLAMPGHPIRLAVYEWSEPGFQRLILPWHQIDTAADLETVAATLRTTRRAAAPPGTAIGPAMHHGAALLAQQPDCWKRTLDLSGDGKHNMGPHPRVVKAALEGSGLTVNALVIGADSTTFTDLRQTQIGELSAYYGAWVILGPDAFVEVALGYEDYQAAMERKLRRELEGLVLSALPTRAATQLHAPVLPWPVLPQAAALEHHHHHH | not soluble
MIRPVDFQGFVVKGVESVQNVSQTLNQQTLVQQALSQHLLHQIQREQSSVKESNTAERAEVRTSTERRQRGFPQTRTHSSLKKKKTSIKEENKGLFMDVRTLEHHHHHH | not soluble
MIRSMTAYARREIKGEWGSATWEMRSVNQRYLETYFRLPEQFRSLEPVVRERIRSRLTRGKVECTLRYEPDVSAQGELILNEKLAKQLVTAANWVKMKSDEGEINPVDILRWPGVMAAQEQDLDAIAAEILAALDGTLDDFIVARETEGQALKALIEQRLEGVTAEVVKVRAHMPEILQWQRERLVAKLEDAQVQLENNRLEQELVLLAQRIDVAEELDRLEAHVKETYNILKKKEAVGRRLDFMMQEFNRESNTLASKSINAEVTNSAIELKVLIEQMREQIQNIE | not soluble
MISDIRKDAEVRMDKCVEAFKTQISKIRTGRASPSLLDGIVVEYYGTPTPLRQLASVTVEDSRTLKINVFDRSMSPAVEKAIMASDLGLNPNSAGSDIRVPLPPLTEERRKDLTKIVRGEAEQARVAVRNVRRDANDKVKALLKDKEISEDDDRRSQDDVQKLTDAAIKKIEAALADKEAELMQF | soluble
MISHCRRLLATTTALVIASTAIAAAEPSAELIAAAKKEGMLTTVALPHDWCGYGDVIAAFKAKYPEITVNELNPDAGSADEVEAVKANKDNKGPQAPDVVDVGLAFGPQMKAEGLLQPYKVSTWAEIPDNVKDADGYWYGDYYGVMSMFVNKDLVKNVPKDWADLLKPEYSGQVALAGDPRASNQAILGVLAAGLSTGAKSGKEAGEAGLKYFADLNKAGNFLPVIGKAGTLAQGATPIIVAWDYNALSWKKTLNDNPPTEVVVPEKGVLAGVYVQGISAYAPHPNAAKLWMEHLYSDDGQLGWLKGYCHPIRFNAMVKAGKVPQELIDSLPPAAAYEKAIFPTLEEVDANKAAVTGGWDKVVGANVK | not soluble
MISIPKDEFQQIFVKDLMISSEKVAHVQIGNGLEHALLVLVKSGYSAIPVLDPMYKLHGLISTAMILDGILGLERIEFERLEEMKVEQVMKQDIPVLKLEDSFAKALEMTIDHPFICAVNEDGYFEGILTRRAILKLLNKKVRQHNR | not soluble
MISIVIPLYNQVAYTQLCVQSLRRAGLNGVDVLLIDNGSTDGTAEYLKSCSDLRVIRNRENLGCAGAWNQGVRETTSEWVMILNNDVVVSPGWLDGLLEAAGKEGLDVVSPAIREGEYNYDIEGYSQEFVGRMGDVVRRGVADGICFMVRRRVFEVVGLFDENFRIGQFEDADFFRRARNAGFRLGTTGRSFIHHFGSVTQDAIRKNRPERPYVAENRAYFREKWQLTRGRRLIERWRRKLREFAWQKCERMFHGHTLKEKWLGGRLRYYLEHHHHHH | not soluble
MISMKPRYKPDWESLREHTVPKWFDKAKFGIFIHWGIYSVPGWATPTGELGKVPMDAWFFQNPYAEWYENSLRIKESPTWEYHVKTYGENFEYEKFADLFTAEKWDPQEWADLFKKAGAKYVIPTTKHHDGFCLWGTKYTDFNSVKRGPKRDLVGDLAKAVREAGLRFGVYYSGGLDWRFTTEPIRYPEDLSYIRPNTYEYADYAYKQVMELVDLYLPDVLWNDMGWPEKGKEDLKYLFAYYYNKHPEGSVNDRWGVPHWDFKTAEYHVNYPGDLPGYKWEFTRGIGLSFGYNRNEGPEHMLSVEQLVYTLVDVVSKGGNLLLNVGPKGDGTIPDLQKERLLGLGEWLRKYGDAIYGTSVWERCCAKTEDGTEIRFTRKCNRIFVIFLGIPTGEKIVIEDLNLSAGTVRHFLTGERLSFKNVGKNLEITVPKKLLETDSITLVLEAVEEHHHHHH | soluble
MISWEIEELDREIGKIKKHSLILIHEEDASSRGKDILFYILSRKLKSDNLVGMFSISYPLQLIIRILSRFGVDVIKYLENHRLAIVDTFGSFHGIKATMPGVWYLEGMLSSETLPIKYAKAVEDHKKVWMDLNLFEGRELYGFAISMSGYLEVFTPEETLRYLETSAEVRYGHPAYKKYPRGTNFWLWEGVKDKRVLLSVYRRADYVLKTRSSLGENGIKRELLVIKTPKPIEELVRFEYEFKGNEPKLRRVD | soluble
MISYQKAKLAKNLAISTASKWLFVHSSTGGSATNLSIAQYATLINGIQSAIKCQVILTAGKGERERAVELAEKLTDQNVVIYDKNDGLADFTRSLACADLFIAGSTGPLHIAGGLNIPTVGFYPSRLSATPRRWRPINQVDKHLAFCPPSGKQCEMDLTLISIEQALTSVIPFIKKMWQLSLEHHHHHH | not soluble
MITLFQFPAAFNVPNASPYCLKLETWLRLAGLEYQVKVVSDPRKAPKGKLPYVRIEGEAIGDSEIVIRTLGERYGVTLDAGLDARGKGWARAITRLCDEHLYYLMLYFRWFDEDSWRVLKPVFFGSLPFGVRDAVAWAMRRKVRATLRAQGLGVHGRDELLAFARDDLDALDGLLGQVPYYGGEHPCSADAAAYGILANLIEATLDTPLSHVARGYPRLVAYCERMRERVWSELEHHHHHH | soluble
MITLWENRDKWEEDSNLHGLLLTIIKNKALNYLAHLQVRLRAEEEINSHSQRELDLRISTLEACEPDAIFDSEIQHIVQKALKRMPNQSRQIFILSRYQNTPNKKIAEQLGISVKSVEFHITKALKILRTELKDYLVSILF | not soluble
MITSDSHMHTRFSTDSDADIRDMIESALKKGLQSICITDHIDKDYPFHEDTGAEAFLVDLDEYFPKLAEWKEAYAEKIQIRRGIELGLQPHLAGFYEELTNQYPFDFVIGSVHVVHGMDPYYGEIFEGRSDEEVYKETFLATLENLDAVSSFDVLGHLDYVVRYGKCQARQYSYKKYAQEIDEILKKVIAMGKGIELNTAGWKYGLAFCHPHPEILCRYKELGGEIITVGSDAHKPEHVAYDFQKAADVLKACGFKYYTEFQDRKPIFKQLL | soluble
MITTGKVWKFGDDISTDEITPGRYNLTKDPKELAKIAFIEVRPDFARNVRPGDVVVAGKNFGIGSSRESAALALKALGIAGVIAESFGRIFYRNAINIGIPLLLGKTEGLKDGDLVTVNWETGEVRKGDEILMFEPLEDFLLEIVREGGILEYIRRRGDLCIR | soluble
MITTRTAKQCGQADYGWLQARYTFSFGHYFDPTLLGYASLRVLNQEVLAPGASFQPRTYPKVDILNLILDGEAEYRDSDGNHVQAKAGEALLLAAQPGISYSEHNISKVKPLTRMQLWLDACPERENTLVQKIPLLAAQQQLLASPDGEQNSLQLRQQVWVHHITLEKGESLNFQLHGPRAYLQSIHGTFHAMTHNEEREALTCGDGAFIRDEPNITLVADTPLRALLVDLPV | not soluble
MIVEPMTKPRKPTVQRCQSFFTNGANHFYCKKSTHDGGRTHNLLIRSQTRCHYATRATVCWKFSIINKYIPTLANITITTLRKLYKRFIDRESLFLIFFRKDEHIVQNIIN | soluble

Source: the DeepSol protein solubility set
